Data: patent US20090304721A1 (MEDLMMUNE, published 2009)

Experiments:
[1] = target: T1, human EphA2 expressed on cells (human, UniProt P29317 24-976); assay: cell-based or functional assay
[2] = target: T1, human EphA2 expressed on cells; assay: immunofluorescence of HUVEC cells labeled with 50 ug/ml antibody at 4 C, 0 or 20 min at 37 C, fixed, permeabilized, AlexaFluor 488 goat anti-human IgG, DAPI mounting medium
[3] = target: T2, mouse EphA2 expressed on cells (mouse, UniProt Q03145 26-977); assay: flow cytometry on tumor cell lines, 1 ug antibody, PE anti-human IgG
T2 construct: whole, on cells
T2 sequence (Q03145 26-977): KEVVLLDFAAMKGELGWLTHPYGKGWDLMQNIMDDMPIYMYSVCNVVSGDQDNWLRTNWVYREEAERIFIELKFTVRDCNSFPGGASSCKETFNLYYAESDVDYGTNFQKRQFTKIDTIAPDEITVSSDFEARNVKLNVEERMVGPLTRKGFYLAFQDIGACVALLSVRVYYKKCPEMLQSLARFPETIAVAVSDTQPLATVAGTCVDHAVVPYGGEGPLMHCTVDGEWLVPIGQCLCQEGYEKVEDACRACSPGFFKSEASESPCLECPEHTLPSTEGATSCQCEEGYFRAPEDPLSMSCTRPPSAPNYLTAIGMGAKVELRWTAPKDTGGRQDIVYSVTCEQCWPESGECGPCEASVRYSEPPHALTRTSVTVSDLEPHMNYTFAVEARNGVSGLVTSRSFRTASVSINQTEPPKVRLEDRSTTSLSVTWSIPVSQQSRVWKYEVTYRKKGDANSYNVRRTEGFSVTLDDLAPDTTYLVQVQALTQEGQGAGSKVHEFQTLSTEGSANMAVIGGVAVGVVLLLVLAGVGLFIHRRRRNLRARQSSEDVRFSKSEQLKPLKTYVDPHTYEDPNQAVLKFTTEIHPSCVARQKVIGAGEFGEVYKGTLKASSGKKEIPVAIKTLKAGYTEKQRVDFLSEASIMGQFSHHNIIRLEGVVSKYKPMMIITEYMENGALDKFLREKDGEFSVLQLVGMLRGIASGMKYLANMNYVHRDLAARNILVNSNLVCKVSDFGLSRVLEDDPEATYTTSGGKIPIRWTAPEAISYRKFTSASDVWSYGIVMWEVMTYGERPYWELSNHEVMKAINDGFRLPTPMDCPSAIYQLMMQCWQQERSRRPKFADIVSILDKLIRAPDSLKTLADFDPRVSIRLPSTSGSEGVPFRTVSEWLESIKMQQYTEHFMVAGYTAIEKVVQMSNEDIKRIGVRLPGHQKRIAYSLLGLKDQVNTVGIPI
Experimental: (§1) The cells were then washed 2× with cold PBS and stained for 30 minutes at 4° C. with secondary Abs (Phycoerythin conjugated goat-a-human IgG, Biosource). Fluorescence analysis was performed using a FACS Calibur flow cytometer (BD Biosciences).

[4] = target: T1, human EphA2 expressed on cells; assay: flow cytometry on twelve human cell lines, 1 ug primary antibody per 2x10^5 cells, PE goat anti-human IgG; y axis Mean Fl. Shift (%)
Experimental: as §1

T1 sequence (P29317 24-976): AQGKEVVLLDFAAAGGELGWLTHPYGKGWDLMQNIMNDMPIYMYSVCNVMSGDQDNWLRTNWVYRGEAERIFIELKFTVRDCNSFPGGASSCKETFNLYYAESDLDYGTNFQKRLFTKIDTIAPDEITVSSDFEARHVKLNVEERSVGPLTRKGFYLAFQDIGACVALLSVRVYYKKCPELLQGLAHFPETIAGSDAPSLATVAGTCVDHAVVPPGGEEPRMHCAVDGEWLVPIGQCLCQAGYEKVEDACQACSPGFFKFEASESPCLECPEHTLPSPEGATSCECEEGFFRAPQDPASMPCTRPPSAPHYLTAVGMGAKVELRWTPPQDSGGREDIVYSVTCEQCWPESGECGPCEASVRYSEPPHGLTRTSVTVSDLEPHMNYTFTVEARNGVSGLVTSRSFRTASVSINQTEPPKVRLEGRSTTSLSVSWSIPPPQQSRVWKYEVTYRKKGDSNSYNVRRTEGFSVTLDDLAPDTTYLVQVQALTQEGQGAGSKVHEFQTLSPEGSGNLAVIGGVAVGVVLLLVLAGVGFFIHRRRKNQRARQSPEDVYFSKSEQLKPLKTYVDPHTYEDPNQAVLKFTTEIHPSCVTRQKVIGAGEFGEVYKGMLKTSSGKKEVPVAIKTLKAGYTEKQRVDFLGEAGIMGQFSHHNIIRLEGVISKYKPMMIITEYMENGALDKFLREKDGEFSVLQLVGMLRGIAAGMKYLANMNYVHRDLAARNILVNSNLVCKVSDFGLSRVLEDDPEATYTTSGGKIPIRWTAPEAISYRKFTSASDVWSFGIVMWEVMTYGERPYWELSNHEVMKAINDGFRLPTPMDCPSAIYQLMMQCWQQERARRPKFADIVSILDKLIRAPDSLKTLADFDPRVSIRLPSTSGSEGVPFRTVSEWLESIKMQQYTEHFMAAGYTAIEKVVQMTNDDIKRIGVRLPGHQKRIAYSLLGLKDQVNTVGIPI

B1: 3F2mcMMAF (antibody, V domains shown)
VH: EVQLVESGGGVVRPGGSLRLSCAASGFTVSDYSMNWVRQAPGKGLEWIGFIRNKANAYTTEYSASVKGRFTISRDDSKNTLYLQMNSLKTEDTAVYYCTTYPRYHAMDSWGQGTMVTVSS
VL: AIQLTQSPSSLSASVGDRVTITCRASQSISNNLHWYLQKPGQSPQLLIYYGFQSISGVPSRFSGSGSGTDFTLTISSLQPEDFATYYCQQANSWPLTFGGGTKLEIK
modifications: antibody conjugated to monomethylauristatin F (MMAF) through a maleimidocaproyl-citrulline (mc) linker; attachment residues not stated
B1 was tested, and the “IC50 (read off the curve), growth inhibition of MCF10-A cells” value [1] was about 20 nM.

B2: anti-EphA2 antibody 3F2 (antibody, V domains shown)
VH: EVQLVESGGGVVRPGGSLRLSCAASGFTVSDYSMNWVRQAPGKGLEWIGFIRNKANAYTTEYSASVKGRFTISRDDSKNTLYLQMNSLKTEDTAVYYCTTYPRYHAMDSWGQGTMVTVSS
VL: AIQLTQSPSSLSASVGDRVTITCRASQSISNNLHWYLQKPGQSPQLLIYYGFQSISGVPSRFSGSGSGTDFTLTISSLQPEDFATYYCQQANSWPLTFGGGTKLEIK
notes: Humanized agonistic monoclonal antibody
B2: binds [2].

B3: anti-EphA2 antibody 1H3 (antibody, V domains shown)
VH: EVQLLESGGGLVQPGGSLRLSCAASGFTFSMYAMRWVRQAPGKGLEWVSVIGPSGGWTPYADSVKGRFTISRDNSKNTLYLQMNSLRAEDTAVYYCARDRGIYGMDVWGQGTTVTVSS
VL: DIQMTQSPSFLSASVGDRVTITCRASQGISSYLAWYQQKPGKAPKLLIYAASTLQSGVPSRFSGSGSGTEFTLTISSLQPEDFATYYCLELNNYPFTFGLGTKVHIK
B3: binds [3]; binds [4].
